According to patent publication US20190360025A1:

Tests used:
[1] = target: tumor necrosis factor alpha (TNF-α), R&D Systems 210-TA-005 (UniProt P01375); assay: t-PLA, buffer; TNF-α 1.00E-09 M
[2] = target: tumor necrosis factor alpha (TNF-α), R&D Systems 210-TA-005 (UniProt P01375); assay: BLI (Octet RED), antibody on protein G sensors, 1:1 global fit
[3] = target: tumor necrosis factor alpha (TNF-α), R&D Systems 210-TA-005 (UniProt P01375); assay: c-PLA 1X probes, human plasma; TNF-α 1.00E-08 M
[4] = target: tumor necrosis factor alpha (TNF-α), R&D Systems 210-TA-005 (UniProt P01375); assay: t-PLA 10X probes, buffer; TNF-α 1.00E-08 M
[5] = target: tumor necrosis factor alpha (TNF-α), R&D Systems 210-TA-005 (UniProt P01375); assay: c-PLA 1X probes, buffer; TNF-α 1.00E-10 M
[6] = target: tumor necrosis factor alpha (TNF-α), R&D Systems 210-TA-005 (UniProt P01375); assay: t-PLA 1X probes, human plasma; TNF-α 5.00E-07 M
[7] = target: tumor necrosis factor alpha (TNF-α), R&D Systems 210-TA-005 (UniProt P01375); assay: t-PLA 1X probes, buffer; TNF-α 1.00E-11 M
[8] = target: tumor necrosis factor alpha (TNF-α), R&D Systems 210-TA-005 (UniProt P01375); assay: c-PLA 10X probes, buffer; TNF-α 5.00E-07 M
[9] = target: tumor necrosis factor alpha (TNF-α), R&D Systems 210-TA-005 (UniProt P01375); assay: t-PLA 10X probes, buffer; TNF-α 5.00E-07 M
[10] = target: tumor necrosis factor alpha (TNF-α), R&D Systems 210-TA-005 (UniProt P01375); assay: c-PLA, buffer; TNF-α 1.00E-09 M
[11] = target: tumor necrosis factor alpha (TNF-α), R&D Systems 210-TA-005 (UniProt P01375); assay: c-PLA 10X probes, human plasma; TNF-α 1.00E-09 M
[12] = target: tumor necrosis factor alpha (TNF-α), R&D Systems 210-TA-005 (UniProt P01375); assay: t-PLA 10X probes, human plasma; TNF-α 1.00E-13 M
[13] = target: tumor necrosis factor alpha (TNF-α), R&D Systems 210-TA-005 (UniProt P01375); assay: c-PLA 1X probes, buffer; TNF-α 1.00E-09 M
[14] = target: vascular endothelial growth factor (VEGF), R&D Systems 293-VE-010 (human) (UniProt P15692); assay: t-PLA with preamplification; VEGF 1.00E-10 M
Sequence of UniProt P15692 (P15692 other isoform, or with tags, fused parts or gaps limits assumed): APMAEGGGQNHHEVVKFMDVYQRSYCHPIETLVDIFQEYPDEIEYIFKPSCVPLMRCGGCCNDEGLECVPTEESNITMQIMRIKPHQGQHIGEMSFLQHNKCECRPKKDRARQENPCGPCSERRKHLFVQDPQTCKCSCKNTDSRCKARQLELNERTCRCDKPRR

[15] = target: vascular endothelial growth factor (VEGF), R&D Systems 293-VE-010 (human) (UniProt P15692); assay: t-PLA, chicken plasma; VEGF 1.00E-10 M
[16] = target: vascular endothelial growth factor (VEGF), R&D Systems 293-VE-010 (human) (UniProt P15692); assay: t-PLA, human plasma; VEGF 1.00E-10 M
[17] = target: vascular endothelial growth factor (VEGF), R&D Systems 293-VE-010 (human) (UniProt P15692); assay: c-PLA, buffer; VEGF 1.00E-11 M
[18] = target: vascular endothelial growth factor (VEGF), R&D Systems 293-VE-010 (human) (UniProt P15692); assay: c-PLA, chicken plasma; VEGF 1.00E-12 M
[19] = target: vascular endothelial growth factor (VEGF), R&D Systems 293-VE-010 (human) (UniProt P15692); assay: t-PLA, human plasma; VEGF 1.00E-08 M
[20] = target: vascular endothelial growth factor (VEGF), R&D Systems 293-VE-010 (human) (UniProt P15692); assay: t-PLA, buffer; VEGF 1.00E-10 M
[21] = target: vascular endothelial growth factor (VEGF), R&D Systems 293-VE-010 (human) (UniProt P15692); assay: t-PLA, chicken plasma; VEGF 1.00E-11 M
[22] = target: vascular endothelial growth factor (VEGF), R&D Systems 293-VE-010 (human) (UniProt P15692); assay: c-PLA with preamplification; VEGF 1.00E-11 M
[23] = target: vascular endothelial growth factor (VEGF), R&D Systems 293-VE-010 (human) (UniProt P15692); assay: c-PLA with preamplification; VEGF 1.00E-12 M
[24] = target: vascular endothelial growth factor (VEGF), R&D Systems 293-VE-010 (human) (UniProt P15692); assay: c-PLA, buffer; VEGF 1.00E-08 M
[25] = target: vascular endothelial growth factor (VEGF), R&D Systems 293-VE-010 (human) (UniProt P15692); assay: c-PLA, chicken plasma; VEGF 1.00E-11 M
[26] = target: vascular endothelial growth factor (VEGF), R&D Systems 293-VE-010 (human) (UniProt P15692); assay: t-PLA with preamplification; VEGF 1.00E-11 M
[27] = target: vascular endothelial growth factor (VEGF), R&D Systems 293-VE-010 (human) (UniProt P15692); assay: c-PLA, human plasma; VEGF 1.00E-14 M
[28] = target: vascular endothelial growth factor (VEGF), R&D Systems 293-VE-010 (human) (UniProt P15692); assay: c-PLA, chicken plasma; VEGF 1.00E-10 M

Sequence of UniProt P01375 (P01375 77-233 limits assumed): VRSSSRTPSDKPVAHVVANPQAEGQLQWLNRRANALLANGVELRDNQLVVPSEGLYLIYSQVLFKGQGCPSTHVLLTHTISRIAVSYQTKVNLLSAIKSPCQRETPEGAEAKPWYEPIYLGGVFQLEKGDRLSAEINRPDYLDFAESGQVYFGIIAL

Substance “affinity-purified polyclonal anti-TNF-α antibody (R&D Systems AF-210-NA)” has a Counts [1] of 1.98e+07, an SBR [1] of 116 and a Kd [2] of 6.43 nM. The Counts [3] was 4770, the SBR [3] was 63 and the Counts [4] was 1.33e+09. The SBR [4] was 233, the Counts [5] was 260 and the Counts [6] was 2.12e+08. The SBR [6] was 892, the Counts [7] was 443000 and the Counts [8] was 650000. It also gave an SBR [8] of 3550, a Counts [9] of 2.24e+09 and an SBR [9] of 392. The Counts [10] was 3700, the SBR [10] was 328 and the Counts [11] was 45400. The SBR [11] was 21, the Counts [12] was 1.36e+07 and the SBR [12] was 1.2. The Counts [13] was 3700 and the SBR [13] was 232.

“affinity-purified polyclonal anti-VEGF antibody (R&D Systems AF-293-NA)” was tested, and the Counts [14] was 1.78e+08, the SBR [14] was 1010 and the Counts [15] was 9.58e+07. The SBR [15] was 1430, the Counts [16] was 4.9e+07 and the SBR [16] was 30. It also gave a Counts [17] of 4820, an SBR [17] of 162 and a Counts [18] of 198. It also gave an SBR [18] of 22, a Counts [19] of 8.23e+07 and an SBR [19] of 51. The Counts [20] was 7.59e+08, the SBR [20] was 2190 and the Counts [21] was 7.94e+06. For the same substance, the SBR [21] was 119, the Counts [22] was 4.88e+06 and the SBR [22] was 82. It also gave a Counts [23] of 516000, an SBR [23] of 8.7 and a Counts [24] of 483000. The SBR [24] was 16300, the Counts [25] was 2160 and the SBR [25] was 234. For the same substance, the Counts [26] was 1.26e+07, the SBR [26] was 71 and the Counts [27] was 292. For the same substance, the SBR [27] was 1.1, the Counts [28] was 26800 and the SBR [28] was 2900.
